Laboratory results from patent US20250346679A1 (INVOX PHARMA, published 2025).

Assays:
[1] = biological target: T1, cynomolgus CD137, cell-surface (cynomolgus, UniProt Q07011 24-255 (human entry)); test: cell-based or functional assay
T1 chain: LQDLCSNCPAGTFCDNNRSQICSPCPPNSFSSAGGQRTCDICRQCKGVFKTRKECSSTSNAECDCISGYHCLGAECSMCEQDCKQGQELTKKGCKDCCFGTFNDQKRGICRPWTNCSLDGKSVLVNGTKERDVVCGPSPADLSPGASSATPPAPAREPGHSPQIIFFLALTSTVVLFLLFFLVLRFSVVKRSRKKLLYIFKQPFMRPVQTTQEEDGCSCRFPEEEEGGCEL

[2] = biological target: human CD137, cell-surface (human, UniProt Q07011 24-255); test: cell-based or functional assay
[3] = biological target: human PD-L1, cell-surface (human, UniProt Q9NZQ7 19-290); test: cell-based or functional assay
hCD137-mFc-Avi = biological target: T2, hCD137-mFc-Avi (human; mouse, UniProt Q07011 24-186, biotin on the Avi sequence where the biotinylated form was used); test: flow cytometry of yeast clones with 10 nM dimeric human antigen
T2 construct: also called human CD137-mFc-Avi; dimeric human CD137; not shown: mouse IgG2a Fc domain (mIgG2a Fc)
T2 sequence (Q07011 24-186): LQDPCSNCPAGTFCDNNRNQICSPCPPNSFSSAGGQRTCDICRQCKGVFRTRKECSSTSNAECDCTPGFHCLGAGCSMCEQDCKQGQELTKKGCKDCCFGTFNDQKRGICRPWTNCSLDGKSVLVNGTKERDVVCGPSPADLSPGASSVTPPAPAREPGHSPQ

Sequence of human PD-L1, cell-surface (Q9NZQ7 19-290): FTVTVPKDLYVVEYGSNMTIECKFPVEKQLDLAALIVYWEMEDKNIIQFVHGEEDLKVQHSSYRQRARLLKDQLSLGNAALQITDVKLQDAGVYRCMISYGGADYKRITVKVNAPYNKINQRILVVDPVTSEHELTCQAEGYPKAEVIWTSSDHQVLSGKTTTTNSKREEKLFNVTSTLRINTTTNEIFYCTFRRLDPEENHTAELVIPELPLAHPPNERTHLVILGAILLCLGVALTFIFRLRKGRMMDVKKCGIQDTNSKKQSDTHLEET

B1: FS22-053-008-AA/G12v2 (bispecific antibody, human IgG1, kappa, L234A L235A)
heavy: EVQLVQSGAEVKRPGASVKVSCKASGYTFTSYGISWVRQAPGQGLEWMGWISAYSGGTNYAQKLQGRVTMTTDTSTSTAYMELRSLRSDDTAVYYCARDLFPTIFGVSYYYYWGQGTLVTVSSASTKGPSVFPLAPSSKSTSGGTAALGCLVKDYFPEPVTVSWNSGALTSGVHTFPAVLQSSGLYSLSSVVTVPSSSLGTQTYICNVNHKPSNTKVDKKVEPKSCDKTHTCPPCPAPEAAGGPSVFLFPPKPKDTLMISRTPEVTCVVVDVSHEDPEVKFNWYVDGVEVHNAKTKPREEQYNSTYRVVSVLTVLHQDWLNGKEYKCKVSNKALPAPIEKTISKAKGQPREPQVYTLPPSRDELNPPYLFSNQVSLTCLVKGFYPSDIAVEWESNGQPENNYKTTPPVLDSDGSFFLYSKLTVDYWRWLEGNVFSCSVMHEALHNHYTQKSLSLSPG
light: DIQMTQSPSTLSASVGDRVTITCRASQSISGRLAWYQQKPGKAPNLLIYEASNLESGVPSRFSGSGSGTEFTLTISSLQPEDFATYYCQQSYSWPRTFGQGTKVEIKRTVAAPSVFIFPPSDEQLKSGTASVVCLLNNFYPREAKVQWKVDNALQSGNSQESVTEQDSKDSTYSLSSTLTLSKADYEKHKVYACEVTHQGLSSPVTKSFNRGEC
[1]
  EC50 (nM) (crosslinked), mIL-2 release, DO11.10.cCD137 with HEK.cyPD-L1: 0.07 nM
  Emax (pg/ml) (crosslinked), mIL-2 release, DO11.10.cCD137 with HEK.cyPD-L1: 9660 pg/mL
[2]
  EC50 (nM), hIL-2 release, CD8+ T cells, donor 171115A, HEK.hPD-L1 XL: 0.13 nM
  EC50 (nM), hIL-2 release, CD8+ T cells, donor 171115A, MDA-MB-231 XL: 0.02 nM
  EC50 (nM), hIL-2 release, CD8+ T cells, donor 171115B, HEK.hPD-L1 XL: 0.12 nM
  EC50 (nM), hIL-2 release, CD8+ T cells, donor 171115B, MDA-MB-231 XL: 0.02 nM

B2: FS22-053-017-AA/E05v2 (bispecific antibody, human IgG1, kappa, L234A L235A)
heavy: EVQLVQSGAEVKRPGASVKVSCKASGYTFTSYGISWVRQAPGQGLEWMGWISAYSGGTNYAQKLQGRVTMTTDTSTSTAYMELRSLRSDDTAVYYCARDLFPTIFGVSYYYYWGQGTLVTVSSASTKGPSVFPLAPSSKSTSGGTAALGCLVKDYFPEPVTVSWNSGALTSGVHTFPAVLQSSGLYSLSSVVTVPSSSLGTQTYICNVNHKPSNTKVDKKVEPKSCDKTHTCPPCPAPEAAGGPSVFLFPPKPKDTLMISRTPEVTCVVVDVSHEDPEVKFNWYVDGVEVHNAKTKPREEQYNSTYRVVSVLTVLHQDWLNGKEYKCKVSNKALPAPIEKTISKAKGQPREPQVYTLPPSRDELNPPYLFSNQVSLTCLVKGFYPSDIAVEWESNGQPENNYKTTPPVLDSDGSFFLYSKLTVYHWRWLEGNVFSCSVMHEALHNHYTQKSLSLSPG
light: DIQMTQSPSTLSASVGDRVTITCRASQSISGRLAWYQQKPGKAPNLLIYEASNLESGVPSRFSGSGSGTEFTLTISSLQPEDFATYYCQQSYSTPRVTFGQGTKVEIKRTVAAPSVFIFPPSDEQLKSGTASVVCLLNNFYPREAKVQWKVDNALQSGNSQESVTEQDSKDSTYSLSSTLTLSKADYEKHKVYACEVTHQGLSSPVTKSFNRGEC
[1]
  EC50 (nM) (crosslinked), mIL-2 release, DO11.10.cCD137 with HEK.cyPD-L1: 0.1 nM
  Emax (pg/ml) (crosslinked), mIL-2 release, DO11.10.cCD137 with HEK.cyPD-L1: 9020 pg/mL
[2]
  EC50 (nM), hIL-2 release, CD8+ T cells, donor 171115A, HEK.hPD-L1 XL: 0.15 nM
  EC50 (nM), hIL-2 release, CD8+ T cells, donor 171115A, MDA-MB-231 XL: 0.01 nM
  EC50 (nM), hIL-2 release, CD8+ T cells, donor 171115B, HEK.hPD-L1 XL: 0.12 nM
  EC50 (nM), hIL-2 release, CD8+ T cells, donor 171115B, MDA-MB-231 XL: 0.01 nM

B3: FS22-053-017-AA/E12v2 (bispecific antibody, human IgG1, kappa, L234A L235A)
heavy: EVQLVQSGAEVKRPGASVKVSCKASGYPFTSYGISWVRQAPGQGLEWMGWISAYSGGTNYAQKLQGRVTMTTDTSTSTAYMELRSLRSDDTAVYYCARDLFPTIFGVSYYYYWGQGTLVTVSSASTKGPSVFPLAPSSKSTSGGTAALGCLVKDYFPEPVTVSWNSGALTSGVHTFPAVLQSSGLYSLSSVVTVPSSSLGTQTYICNVNHKPSNTKVDKKVEPKSCDKTHTCPPCPAPEAAGGPSVFLFPPKPKDTLMISRTPEVTCVVVDVSHEDPEVKFNWYVDGVEVHNAKTKPREEQYNSTYRVVSVLTVLHQDWLNGKEYKCKVSNKALPAPIEKTISKAKGQPREPQVYTLPPSRDELNPPYLFSNQVSLTCLVKGFYPSDIAVEWESNGQPENNYKTTPPVLDSDGSFFLYSKLTVYHWRWLEGNVFSCSVMHEALHNHYTQKSLSLSPG
light: DIQMTQSPSTLSASVRDRVIITCRASQSIGNRLAWYQHKPGKAPKLLIYEASTSETGVPSRFSGSGSGTDFTLTISSLQPEDFATYYCQQSYSTPYTFGQGTKLEIKRTVAAPSVFIFPPSDEQLKSGTASVVCLLNNFYPREAKVQWKVDNALQSGNSQESVTEQDSKDSTYSLSSTLTLSKADYEKHKVYACEVTHQGLSSPVTKSFNRGEC
[3]
  EC50 (nM), IFN-γ release, human MLR: 0.04 nM
  Emax (pg/ml), IFN-γ release, human MLR: 3330 pg/mL
[1]
  EC50 (nM) (crosslinked), mIL-2 release, DO11.10.cCD137 with HEK.cyPD-L1: 0.11 nM
  Emax (pg/ml) (crosslinked), mIL-2 release, DO11.10.cCD137 with HEK.cyPD-L1: 9360 pg/mL
[2]
  EC50 (nM), hIL-2 release, CD8+ T cells, donor 171115A, HEK.hPD-L1 XL: 0.11 nM
  EC50 (nM), hIL-2 release, CD8+ T cells, donor 171115A, MDA-MB-231 XL: 0.01 nM
  EC50 (nM), hIL-2 release, CD8+ T cells, donor 171115B, HEK.hPD-L1 XL: 0.12 nM
  EC50 (nM), hIL-2 release, CD8+ T cells, donor 171115B, MDA-MB-231 XL: 0.01 nM

B4: FS22-053-017-AA/G12v2 (bispecific antibody, human IgG1, kappa, L234A L235A)
heavy: EVQLVQSGAEVKRPGASVKVSCKASGYTFTSYGISWVRQAPGQGLEWMGWISAYSGGTNYAQKLQGRVTMTTDTSTSTAYMELRSLRSDDTAVYYCARDLFPTIFGVSYYYYWGQGTLVTVSSASTKGPSVFPLAPSSKSTSGGTAALGCLVKDYFPEPVTVSWNSGALTSGVHTFPAVLQSSGLYSLSSVVTVPSSSLGTQTYICNVNHKPSNTKVDKKVEPKSCDKTHTCPPCPAPEAAGGPSVFLFPPKPKDTLMISRTPEVTCVVVDVSHEDPEVKFNWYVDGVEVHNAKTKPREEQYNSTYRVVSVLTVLHQDWLNGKEYKCKVSNKALPAPIEKTISKAKGQPREPQVYTLPPSRDELNPPYLFSNQVSLTCLVKGFYPSDIAVEWESNGQPENNYKTTPPVLDSDGSFFLYSKLTVYHWRWLEGNVFSCSVMHEALHNHYTQKSLSLSPG
light: DIQMTQSPSTLSASVGDRVTITCRASQSISGRLAWYQQKPGKAPNLLIYEASNLESGVPSRFSGSGSGTEFTLTISSLQPEDFATYYCQQSYSWPRTFGQGTKVEIKRTVAAPSVFIFPPSDEQLKSGTASVVCLLNNFYPREAKVQWKVDNALQSGNSQESVTEQDSKDSTYSLSSTLTLSKADYEKHKVYACEVTHQGLSSPVTKSFNRGEC
[1]
  EC50 (nM) (crosslinked), mIL-2 release, DO11.10.cCD137 with HEK.cyPD-L1: 0.08 nM
  Emax (pg/ml) (crosslinked), mIL-2 release, DO11.10.cCD137 with HEK.cyPD-L1: 8930 pg/mL
[2]
  EC50 (nM), hIL-2 release, CD8+ T cells, donor 171115A, HEK.hPD-L1 XL: 0.1 nM
  EC50 (nM), hIL-2 release, CD8+ T cells, donor 171115A, MDA-MB-231 XL: 0.01 nM
  EC50 (nM), hIL-2 release, CD8+ T cells, donor 171115B, HEK.hPD-L1 XL: 0.2 nM
  EC50 (nM), hIL-2 release, CD8+ T cells, donor 171115B, MDA-MB-231 XL: 0.01 nM

B5: FS22-172-004 Fcab clone displayed on yeast (designed binder)
chain: GQPREPQVYTLPPSRDELNYIYPPYNQVSLTCLVKGFYPSDIAVEWESNGQPENNYKTTPPVLDSDGSFFLYSKLTVGADRWLEGNVFSCSVMHEALHNHYTQKSLSLSPG
hCD137-mFc-Avi
  % APC positive cells: > 10%

B6: FS22-053-008 Fcab clone displayed on yeast (designed binder)
chain: GQPREPQVYTLPPSRDELNPPYLFSNQVSLTCLVKGFYPSDIAVEWESNGQPENNYKTTPPVLDSDGSFFLYSKLTVDYWRWLEGNVFSCSVMHEALHNHYTQKSLSLSPG
notes: yeast display clone, FS22-053 EF library
hCD137-mFc-Avi
  % APC positive cells: > 30%

B7: FS22-053-009 Fcab clone displayed on yeast (designed binder)
chain: GQPREPQVYTLPPSRDELNPPYLFSNQVSLTCLVKGFYPSDIAVEWESNGQPENNYKTTPPVLDSDGSFFLYSKLTVEHTRWLDGNVFSCSVMHEALHNHYTQKSLSLSPG
notes: as for B6
hCD137-mFc-Avi
  % APC positive cells: > 30%

B8: FS22-053-010 Fcab clone displayed on yeast (designed binder)
chain: GQPREPQVYTLPPSRDELNPPYLFSNQVSLTCLVKGFYPSDIAVEWESNGQPENNYKTTPPVLDSDGSFFLYSKLTVDYMRWLDGNVFSCSVMHEALHNHYTQKSLSLSPG
notes: as for B6
hCD137-mFc-Avi
  % APC positive cells: > 30%

B9: FS22-053-011 Fcab clone displayed on yeast (designed binder)
chain: GQPREPQVYTLPPSRDELNPPYLFSNQVSLTCLVKGFYPSDIAVEWESNGQPENNYKTTPPVLDSDGSFFLYSKLTVDYWRWTDGNVFSCSVMHEALHNHYTQKSLSLSPG
notes: as for B6
hCD137-mFc-Avi
  % APC positive cells: > 30%

B10: FS22-053-012 Fcab clone displayed on yeast (designed binder)
chain: GQPREPQVYTLPPSRDELNPPYLFSNQVSLTCLVKGFYPSDIAVEWESNGQPENNYKTTPPVLDSDGSFFLYSKLTVDHMRWLEGNVFSCSVMHEALHNHYTQKSLSLSPG
notes: as for B6
hCD137-mFc-Avi
  % APC positive cells: > 30%

B11: FS22-172-001 Fcab clone displayed on yeast (designed binder)
chain: GQPREPQVYTLPPSRDELPFVMPPYNQVSLTCLVKGFYPSDIAVEWESNGQPENNYKTTPPVLDSDGSFFLYSKLTVGADRWLEGNVFSCSVMHEALHNHYTQKSLSLSPG
hCD137-mFc-Avi
  % APC positive cells: > 10%

B12: FS22-172-002 Fcab clone displayed on yeast (designed binder)
chain: GQPREPQVYTLPPSRDELPFQMPPYNQVSLTCLVKGFYPSDIAVEWESNGQPENNYKTTPPVLDSDGSFFLYSKLTVGADRWLEGNVFSCSVMHEALHNHYTQKSLSLSPG
hCD137-mFc-Avi
  % APC positive cells: > 10%

B13: FS22-172-003 Fcab clone displayed on yeast (designed binder)
chain: GQPREPQVYTLPPSRDELPYIIPPYNQVSLTCLVKGFYPSDIAVEWESNGQPENNYKTTPPVLDSDGSFFLYSKLTVGADRWLEGNVFSCSVMHEALHNHYTQKSLSLSPG
hCD137-mFc-Avi
  % APC positive cells: > 10%

B14: FS22-172-005 Fcab clone displayed on yeast (designed binder)
chain: GQPREPQVYTLPPSRDELQQVYPPYNQVSLTCLVKGFYPSDIAVEWESNGQPENNYKTTPPVLDSDGSFFLYSKLTVGADRWLEGNVFSCSVMHEALHNHYTQKSLSLSPG
hCD137-mFc-Avi
  % APC positive cells: > 10%

B15: FS22-172-006 Fcab clone displayed on yeast (designed binder)
chain: GQPREPQVYTLPPSRDELRKYYPPYNQLSLTCLVKGFYPSDIAVEWESNGQPENNYKTTPPVLDSDGSFFLYSKLTVGADRWLEGNVFSCSVMHEALHNHYTQKSLSLSPG
hCD137-mFc-Avi
  % APC positive cells: > 10%
